The values that follow come from paper PMC10520083 (2023).

For test [1], the target named is human α7 nicotinic acetylcholine receptor with the ICD replaced by a short linker and a C-terminal Rho1D4 tag (α7∆ICDcryo), reconstituted in MSP1E3D1 nanodiscs (human) (UniProt P36544). The test can be described thus: cryo-EM structure; 1 µM α7 pentamer in MSP1E3D1 nanodiscs with 50 µM nanobody (50-fold excess), no nicotine (C4-Apo, E3-Apo).
Test [2] shares this target. The test can be described thus: SPR; single-cycle kinetics, Biacore T200; α7-nanodiscs captured on anti-Rho tag antibody 1D4 immobilised on CM5; nanobodies injected (five increasing concentrations, 600 s each, 30 µl/min); buffer A (20 mM Tris, 250 mM NaCl) pH 8, 25 °C. (In general: SPR reads the build-up and loss of mass on a sensor chip optically.)
Test [3] shares this target. As to the kind of experiment: cryo-EM structure; 1 µM α7 pentamer in MSP1E3D1 nanodiscs with a sub-saturating 10 µM nanobody, no nicotine (C4partial-Apo; 2D classification for E3).
In test [4] the target is full-length human α7 nicotinic acetylcholine receptor fused to a Rho1D4 tag at its C-terminus (α7FLcryo) (human) (UniProt P36544). As to the kind of experiment: cryo-EM structure; 1 µM α7 pentamer in MSP1E3D1 nanodiscs with 50 µM nanobody (50-fold excess) and 100 µM nicotine (C4-Nic, E3-Nic).
The target in test [5] is human α7 nicotinic acetylcholine receptor with the ICD replaced by a short linker and a C-terminal Rho1D4 tag (α7∆ICDcryo), reconstituted in MSP1E3D1 nanodiscs (human) (UniProt P36544). The test can be described thus: SPR; single-cycle kinetics, Biacore T200; α7-nanodiscs captured on anti-Rho tag antibody 1D4 immobilised on CM5; nanobodies injected (five increasing concentrations, 600 s each, 30 µl/min); buffer A (20 mM Tris, 250 mM NaCl) pH 8, 25 °C. The source holds these as a separate data set.

Test [6] has as its target T1, human α7 nicotinic acetylcholine receptor with the ICD replaced by a short linker and a C-terminal Rho1D4 tag … (human, UniProt P36544 23-502, N-linked glycans at Asn23, Asn67 and Asn110).
T1 chain: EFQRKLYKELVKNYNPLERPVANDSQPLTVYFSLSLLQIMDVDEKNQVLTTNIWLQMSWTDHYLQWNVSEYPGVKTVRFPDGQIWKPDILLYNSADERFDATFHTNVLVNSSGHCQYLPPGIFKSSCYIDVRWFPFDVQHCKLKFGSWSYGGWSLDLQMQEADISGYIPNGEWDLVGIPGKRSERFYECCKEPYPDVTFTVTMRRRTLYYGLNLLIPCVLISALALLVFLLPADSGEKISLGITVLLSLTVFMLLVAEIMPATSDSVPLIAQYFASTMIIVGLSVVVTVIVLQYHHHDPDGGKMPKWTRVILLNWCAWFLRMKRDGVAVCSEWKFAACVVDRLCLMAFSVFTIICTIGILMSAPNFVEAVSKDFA
As to the kind of experiment: SPR; α7 prep 1, + 100 µM nicotine.

The target of test [7] is T1, human α7 nicotinic acetylcholine …. The test can be described thus: SPR; α7 prep 1.
Test [8] shares this target. The test can be described thus: SPR; α7 prep 1, + 100 µM nicotine.
Test [9] has as its target human α7 nicotinic acetylcholine receptor with the ICD replaced by a short linker and a C-terminal Rho1D4 tag (α7∆ICDcryo), reconstituted in MSP1E3D1 nanodiscs (human) (UniProt P36544). The test can be described thus: cryo-EM structure; 1 µM α7 pentamer in MSP1E3D1 nanodiscs with 50 µM nanobody (50-fold excess) and 100 µM nicotine (C4-Nic, E3-Nic).
Test [10] concerns the target T1, human α7 nicotinic acetylcholine …. The test can be described thus: SPR; α7 prep 1.
Test [11] concerns the target human α7 nicotinic acetylcholine receptor L247T mutant (human) (UniProt P36544).
Test [12] addresses T1, human α7 nicotinic acetylcholine …. As to the kind of experiment: SPR; α7 prep 2.
The target is the same in test [13]. The test can be described thus: SPR; α7 prep 2.

Read-outs that look alike come from different tables or passages of the source.

By stoichiometry N is commonly meant the number of molecules, sites or subunits per partner or assembly. In test [1], “human α7 nicotinic acetylcholine receptor with the ICD replaced by a short linker and a C-terminal Rho1D4 tag (α7∆ICDcryo), reconstituted in MSP1E3D1 nanodiscs (from UniProt P36544 23-502)” had a stoichiometry N of 5.

B1: nanobody C4 (VHH)
VHH: QVQLVESGGGLVQAGGSLKLSCAASGFTFAHYAMVWFRQAPGKEREFVAGISWSGASTYYASSVKGRFTISRDNAKNTVYLQMNSLKPEDTAVYYVAAARFGVGVDDDYSYWGQGTQVTVSS
As usually defined, the Kd is the concentration at which binding is half-saturated. In general, koff refers to the rate constant with which the complex falls apart. By kon is commonly meant the second-order rate constant of association. Read a low kon as slow association. On to B1, for which the stoichiometry N (nanobodies per α7 pentamer) in test [1] turned out to be 5. In [2], this molecule displayed a Kd of 0.2 nM, a koff of 0.00024 s⁻¹, a kon of 1.2e+06 M⁻¹ s⁻¹ and a stoichiometry N (nanobodies per receptor molecule) below 3. Also, the stoichiometry N (nanobodies per α7 pentamer) in test [3] worked out at 3. This molecule yielded a stoichiometry N (nanobodies per α7 pentamer) in test [4] of 5. The molecule further displayed a Kd in test [5] of 0.1 nM.

B2: nanobody E3 (VHH)
VHH: AVQLQASGGGLVQAGDSLRLSCAASGGTFSHYAVGWFRQAPGKEREFVAAISWSGRSTSFANSVKGRFTISRDSAKNTAYLQMNNLKPEDTAVYCCAPARFGTGSAARDEYDDCGQGTQVTVSS
Consider B2, for which the Kd in [6] is 7.4 nM; in test [2], 1 nM; in test [10] it was 8 nM. In addition, the stoichiometry N (nanobodies per α7 pentamer) in [1] and in test [9] was 5 each time. Further, the koff in [2] was found to be 0.0119 s⁻¹; in [7], 0.013 s⁻¹; in test [8] it was 0.0085 s⁻¹; in test [12] it was 0.019 s⁻¹. Moreover, in test [2], the kon amounted to 1.1e+07 M⁻¹ s⁻¹. In [2], this molecule gave a stoichiometry N (nanobodies per receptor molecule) below 3. The same molecule yielded an increase of the holding current during pre-application of E3 in the absence of ACh (direct activation, TEVC, Xenopus oocytes) (% of the response to 0.3 µM ACh) in test [11] of 6.

B3: nanobody E3 E110Q (VHH)
VHH: AVQLQASGGGLVQAGDSLRLSCAASGGTFSHYAVGWFRQAPGKEREFVAAISWSGRSTSFANSVKGRFTISRDSAKNTAYLQMNNLKPEDTAVYCCAPARFGTGSAARDQYDDCGQGTQVTVSS
Turning to B3, binding in test [13] was put at a Kd of 0.62 nM. Also, the dissociation rate constant (koff) in [12] worked out at 0.011 s⁻¹.

B4: nanobody E3 R56A (VHH)
VHH: AVQLQASGGGLVQAGDSLRLSCAASGGTFSHYAVGWFRQAPGKEREFVAAISWSGASTSFANSVKGRFTISRDSAKNTAYLQMNNLKPEDTAVYCCAPARFGTGSAARDEYDDCGQGTQVTVSS
Turning to B4, in test [13], the Kd came to 1.5 nM. Besides, the koff in test [12] was found to be 0.01 s⁻¹.
